In the supplement of paper PMC10567573:

B1: DLC1 (parent)
chain: AEVVKIRDSFSNQNTETKDTKSR

Variants of: B1
Assay: protein stability index of a GFP-peptide fusion (GPS, HEK-293T) (PSI 1-6); higher = more stable
Conditions: c terminus: native
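Note: lentivirally expressed fusions sorted by FACS into six bins by GFP to DsRed ratio, PSI derived from sequencing read proportions per bin multiplied by bin number.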

In order of falling protein stability index:
1. AEVVKIRDSFSNQNTETKDTKSE  5.85
2. AEVVKIRDSFSNQNTETKDTKSQ  5.65
3. AEVVKIRDSFSNQNTETKDTKSD  5.6
4. AEVVKIRDSFSNQNTETKDTNSR  5.59
5. AEVVKIRDSFSNQNTETKDTKSA  5.57
6. AEVVKIRDSFSNQNTETKDTKST  5.55
7. AEVVKIRDSFSNQNTETKDTKSV  5.51
8. AEVVKIRDSFSNQNTETKDTKSK  5.49
9. AEVVKIRDSFSNQNTETKDTKSL  5.49
10. AEVVKIRDSFSNQNTETKDTGSR  5.44
11. AEVVKIRDSFSNQNTETKDTDSR  5.42
12. AEVVKIRDSFSNQNTETKDTKSM  5.38
13. AEVVKIRDSFSNQNTETKDTKSH  5.37
14. AEVVKIRDSFSNQNTETKDTKSP  5.32
15. AEVVKIRDSFSNQNTETKDTKSN  5.26
16. AEVVKIRDSFSNQNTETKDTASR  5.24
17. AEVVKIRDSFSNQNTETKDTESR  5.2
18. AEVVKIRDSFSNQNTETKDTSSR  5.01
19. AEVVKIRDSFSNQNTETKDTMSR  4.99
20. AEVVKIRDSFSNQNTETKDTQSR  4.95
21. AEVVKIRDSFSNQNTETKDTKSI  4.91
22. AEVVKIRDSFSNQNTETKDTVSR  4.89
23. AEVVKIRDSFSNQNTETKDTTSR  4.87
24. AEVVKIRDSFSNQNTETKDTISR  4.85
25. AEVVKIRDSFSNQNTETKDTKSG  4.84
26. AEVVKIRDSFSNQNTETKDTKSF  4.83
27. AEVVKIRDSFSNQNTETKDTFSR  4.8
28. AEVVKIRDSFSNQNTETKDTKSC  4.75
29. AEVVKIRDSFSNQNTETKDTKPR  4.53
30. AEVVKIRDSFSNQNTETKDRKSR  4.41
31. AEVVKIRDSFSNQNTETKDTCSR  4.39
32. AEVVKIRDSFSNQNGETKDTKSR  4.39
33. AEVVKIRDSFSNQNTETKDKKSR  4.33
34. AEVVKIRDSFSNQNTETKDTLSR  4.19
35. AEVVKIRDSFSNQNTETKDTKFR  4.11
36. AEVVKIRDSFSNQNTEGKDTKSR  4.08
37. AEVVKIRDSFSNQNTETKDTKMR  4.06
38. AEVVKIRDSFSNQNTETKDNKSR  3.98
39. AEVVKIRDSFSNQNTETKDTKWR  3.96
40. AEVVKIRDSFSNQNTETKDTWSR  3.92
41. AEVVKIRDSFSNQNTETKDTKER  3.8
42. AEVVKIRDSFSNRNTETKDTKSR  3.77
43. AEVVKIRDSFSNQNTETKNTKSR  3.63
44. AEVVKIRDSFSNVNTETKDTKSR  3.62
45. AEVVKIRDSFSNQNTETKDTYSR  3.57
46. AEVVKIRDSFSNQNTETKDTPSR  3.51
47. AEVVKIRDSFSNQNTEWKDTKSR  3.5
48. AEVVKIRDSFSNQNTETKDTKHR  3.48
49. AEVVKIRDSFSNQNTETKDTKLR  3.48
50. AEVVKIRDSFSNQNEETKDTKSR  3.38
51. AEVVKIRDSFSNQNDETKDTKSR  3.36
52. AEVVKIRDSFSNQNTETKDTKYR  3.36
53. AEVVKIRDSFSNQNTDTKDTKSR  3.35
54. AEVVKIRDSFSNQNTETKDTKDR  3.23
55. AEVVKIRDSFSNQNTQTKDTKSR  3.17
56. AEVVKIRDSFSNQNTETKDTKIR  3.14
57. AEVVKIRDSFSNQNTFTKDTKSR  3.13
58. AEVVKIRDSFSNQPTETKDTKSR  3.12
59. AEVVKIRDSFSNQNTKTKDTKSR  3.12
60. AEVVKIRDSFSNQNTETKTTKSR  3.09
61. AEVVKIRDSFSNQNTETLDTKSR  3.07
62. AEVVKIRDSFSNQNTVTKDTKSR  3.04
63. AEVVKIRDSFSNQNTETKDTKTR  3.04
64. AEVVKIRDSFSNQNTETKPTKSR  3.03
65. AEVVKIRDSFSNQNTETKDTKQR  3.03
66. AEVVKIRDSFSNQNTHTKDTKSR  3
67. AEVVKIRDSFSNQNTETHDTKSR  2.98
68. AEVVKIRDSFSNQNQETKDTKSR  2.98
69. AEVVKIRDSFSNQNTETKDTKVR  2.98
70. AEVVKIRDSFSNQNTEPKDTKSR  2.97
71. AEVVKIRDSFSNQNTETKDTHSR  2.96
72. AEVVKIRDSFSNYNTETKDTKSR  2.92
73. AEVVKIRDSFSNQNTETKDTKKR  2.92
74. AEVVKIRDSFSNQNTETKDPKSR  2.88
75. AEVVKIRDSFSNQNTETKDTKNR  2.88
76. AEVVKIRDSFSNQNTETCDTKSR  2.84
77. AEVVKIRDSFSNQNSETKDTKSR  2.75
78. AEVVKIRDSFSNQNTETKDTKRR  2.75
79. AEVVKIRDSFSNQNTETKDLKSR  2.71
80. AEVVKIRDSFSNQNTETKDIKSR  2.7
81. AEVVKIRDSFSNQNTETKYTKSR  2.69
82. AEVVKIRDSFSNQNTEMKDTKSR  2.68
83. AEVVKIRDSFSNQNTETKDVKSR  2.61
84. AEVVKIRDSFSNQNTEQKDTKSR  2.61
85. AEVVKIRDSFSNQNTETFDTKSR  2.59
86. AEVVKIRDSFSNNNTETKDTKSR  2.56
87. AEVVKIRDSFSNQTTETKDTKSR  2.55
88. AEVVKIRDSFSNQNTEFKDTKSR  2.54
89. AEVVKIRDSFSNQNNETKDTKSR  2.52
90. AEVVKIRDSFSNQNTETKDGKSR  2.51
91. AEVVKIRDSFSNQRTETKDTKSR  2.48
92. AEVVKIRDSFSNQHTETKDTKSR  2.46
93. AEVVKIRDSFSNTNTETKDTKSR  2.45
94. AEVVKIRDSFSNQKTETKDTKSR  2.44
95. AEVVKIRDSFSNQNTEEKDTKSR  2.43
96. AEVVKIRDSFSNQNTATKDTKSR  2.43
97. AEVVKIRDSFSNQNTETKDQKSR  2.42
98. AEVVKIRDSFSNQNTEIKDTKSR  2.41
99. AEVVKIRDSFSNQNTPTKDTKSR  2.41
100. AEVVKIRDSFSNPNTETKDTKSR  2.4
101. AEVVKIRDSFSNQNVETKDTKSR  2.38
102. AEVVKIRDSFSNQNTGTKDTKSR  2.38
103. AEVVKIRDSFSNQWTETKDTKSR  2.37
104. AEVVKIRDSFSNQQTETKDTKSR  2.37
105. AEVVKIRDSFSNQNFETKDTKSR  2.36
106. AEVVKIRDSFSNWNTETKDTKSR  2.36
107. AEVVKIRDSFSNQNTELKDTKSR  2.34
108. AEVVKIRDSFSNQDTETKDTKSR  2.33
109. AEVVKIRDSFSNQNTETVDTKSR  2.32
110. AEVVKIRDSFSNQNTEYKDTKSR  2.31
111. AEVVKIRDSFSNQNTETKETKSR  2.31
112. AEVVKIRDSFSNQNTRTKDTKSR  2.31
113. AEVVKIRDSFSNLNTETKDTKSR  2.31
114. AEVVKIRDSFSNQNTETKITKSR  2.29
115. AEVVKIRDSFSNQNTNTKDTKSR  2.27
116. AEVVKIRDSFSNQNTETIDTKSR  2.26
117. AEVVKIRDSFSNQETETKDTKSR  2.24
118. AEVVKIRDSFSNQNTETKDDKSR  2.23
119. AEVVKIRDSFSNQNTEAKDTKSR  2.22
120. AEVVKIRDSFSNQNKETKDTKSR  2.21
121. AEVVKIRDSFSNQNTETTDTKSR  2.2
122. AEVVKIRDSFSNQNTETKSTKSR  2.19
123. AEVVKIRDSFSNQNLETKDTKSR  2.17
124. AEVVKIRDSFSNQNTEKKDTKSR  2.17
125. AEVVKIRDSFSNQCTETKDTKSR  2.16
126. AEVVKIRDSFSNQNTETPDTKSR  2.15
127. AEVVKIRDSFSNQNAETKDTKSR  2.14
128. AEVVKIRDSFSNQNTETGDTKSR  2.13
129. AEVVKIRDSFSNQNTECKDTKSR  2.11
130. AEVVKIRDSFSNQNTETKDYKSR  2.1
131. AEVVKIRDSFSNQNTETKLTKSR  2.1
132. AEVVKIRDSFSNQNTETKDHKSR  2.09
133. AEVVKIRDSFSNQLTETKDTKSR  2.09
134. AEVVKIRDSFSNQNPETKDTKSR  2.08
135. AEVVKIRDSFSNQNCETKDTKSR  2.08
136. AEVVKIRDSFSNQGTETKDTKSR  2.08
137. AEVVKIRDSFSNQITETKDTKSR  2.08
138. AEVVKIRDSFSNQNTETKHTKSR  2.07
139. AEVVKIRDSFSNQNTTTKDTKSR  2.06
140. AEVVKIRDSFSNQNTETWDTKSR  2.05
141. AEVVKIRDSFSNQNWETKDTKSR  2.05
142. AEVVKIRDSFSNQNTETKGTKSR  2
143. AEVVKIRDSFSNQNTETKQTKSR  1.99
144. AEVVKIRDSFSNQNTETNDTKSR  1.98
145. AEVVKIRDSFSNQNTETSDTKSR  1.98
146. AEVVKIRDSFSNQNTITKDTKSR  1.97
147. AEVVKIRDSFSNQNTETKDMKSR  1.96
148. AEVVKIRDSFSNQSTETKDTKSR  1.96
149. AEVVKIRDSFSNQNTETKMTKSR  1.95
150. AEVVKIRDSFSNQNTWTKDTKSR  1.95
151. AEVVKIRDSFSNQNTETYDTKSR  1.94
152. AEVVKIRDSFSNMNTETKDTKSR  1.94
153. AEVVKIRDSFSNQNTETKDCKSR  1.93
154. AEVVKIRDSFSNQFTETKDTKSR  1.93
155. AEVVKIRDSFSNQNTETKDTKAR  1.93
156. AEVVKIRDSFSNQNTETKFTKSR  1.92
157. AEVVKIRDSFSNQNTETMDTKSR  1.91
158. AEVVKIRDSFSNQNTETKVTKSR  1.91
159. AEVVKIRDSFSNQNTLTKDTKSR  1.91
160. AEVVKIRDSFSNQNTSTKDTKSR  1.9
161. AEVVKIRDSFSNQNTETKDTKGR  1.89
162. AEVVKIRDSFSNSNTETKDTKSR  1.87
163. AEVVKIRDSFSNQNMETKDTKSR  1.86
164. AEVVKIRDSFSNQNTENKDTKSR  1.86
165. AEVVKIRDSFSNQATETKDTKSR  1.86
166. AEVVKIRDSFSNQNTETKKTKSR  1.85
167. AEVVKIRDSFSNQNTETQDTKSR  1.84
168. AEVVKIRDSFSNQNTERKDTKSR  1.84
169. AEVVKIRDSFSNQNTETKRTKSR  1.84
170. AEVVKIRDSFSNQNTCTKDTKSR  1.84
171. AEVVKIRDSFSNQNTEDKDTKSR  1.83
172. AEVVKIRDSFSNQNTETKCTKSR  1.83
173. AEVVKIRDSFSNQNTETKDTKCR  1.82
174. AEVVKIRDSFSNQNTETKDAKSR  1.79
175. AEVVKIRDSFSNQNTETKDSKSR  1.79
176. AEVVKIRDSFSNQNTETKATKSR  1.79
177. AEVVKIRDSFSNQNHETKDTKSR  1.77
178. AEVVKIRDSFSNKNTETKDTKSR  1.77
179. AEVVKIRDSFSNQNTEHKDTKSR  1.73
180. AEVVKIRDSFSNQNTETKDTRSR  1.71
181. AEVVKIRDSFSNQNTETEDTKSR  1.7
182. AEVVKIRDSFSNQNRETKDTKSR  1.67
183. AEVVKIRDSFSNQVTETKDTKSR  1.66
184. AEVVKIRDSFSNQNTETKDEKSR  1.64
185. AEVVKIRDSFSNQNYETKDTKSR  1.62
186. AEVVKIRDSFSNQNIETKDTKSR  1.62
187. AEVVKIRDSFSNQNTMTKDTKSR  1.51
188. AEVVKIRDSFSNQNTETRDTKSR  1.5
189. AEVVKIRDSFSNQNTETKWTKSR  1.45
190. AEVVKIRDSFSNQNTETDDTKSR  1.39
191. AEVVKIRDSFSNQNTETKDFKSR  1.36
192. AEVVKIRDSFSNQNTYTKDTKSR  1.31
193. AEVVKIRDSFSNQNTEVKDTKSR  1.26
194. AEVVKIRDSFSNQNTETADTKSR  1.17
